This note sets out measurements from article doi:10.1101/2021.04.29.441998 (bioRxiv, 2021).

The target in data set [1] is T1, Melbournevirus histone doublet MV-H2B-H2A (MEL_369) (Melbournevirus, UniProt A0A097I2B5 1-269).
T1 sequence (looked up): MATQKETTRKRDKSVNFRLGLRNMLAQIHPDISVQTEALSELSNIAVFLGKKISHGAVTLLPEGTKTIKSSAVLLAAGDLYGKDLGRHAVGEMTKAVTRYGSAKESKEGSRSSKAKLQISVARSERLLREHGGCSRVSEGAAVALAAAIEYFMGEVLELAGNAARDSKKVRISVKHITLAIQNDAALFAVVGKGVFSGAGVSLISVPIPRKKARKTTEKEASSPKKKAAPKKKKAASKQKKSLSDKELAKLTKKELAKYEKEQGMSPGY
Briefly: cryo-EM structure.

Data set [2] deals with the molecule itself. Briefly: cryo-EM structure.

B1: Melbournevirus histone doublet MV-H4-H3 (MEL_368) (natural protein, UniProt A0A097I2D0 1-216, looked up)
chain: MSKAGKKVKAQQHGHLADHVSVGETQIPKASTQHLLRKAGSLSAAGDTEVPIRGFVHMKLHKLVQKSLLAMQLAKRKTIMKSDVKKAAELMHLPVFAIPTKDSGAKGSVFLSCRQKGAGSAGTGSETNSQEVRSQMKSTCLIIPKERFRTMAKEISKKEGHDVHIAEAALDMLQVIVESCTVRLLEKALVITYSGKRTRVTSKDIETAFMLEHGPL
Regarding B1, the binding result in data set [1] and in data set [2] was “binds” in each case.
